Assay results reported in patent US20200138970A1 (Bayer, published 2020).

T1: human B7H3 on cancer cell lines (human, UniProt Q5ZPR3 29-534)
T1 sequence (looked up): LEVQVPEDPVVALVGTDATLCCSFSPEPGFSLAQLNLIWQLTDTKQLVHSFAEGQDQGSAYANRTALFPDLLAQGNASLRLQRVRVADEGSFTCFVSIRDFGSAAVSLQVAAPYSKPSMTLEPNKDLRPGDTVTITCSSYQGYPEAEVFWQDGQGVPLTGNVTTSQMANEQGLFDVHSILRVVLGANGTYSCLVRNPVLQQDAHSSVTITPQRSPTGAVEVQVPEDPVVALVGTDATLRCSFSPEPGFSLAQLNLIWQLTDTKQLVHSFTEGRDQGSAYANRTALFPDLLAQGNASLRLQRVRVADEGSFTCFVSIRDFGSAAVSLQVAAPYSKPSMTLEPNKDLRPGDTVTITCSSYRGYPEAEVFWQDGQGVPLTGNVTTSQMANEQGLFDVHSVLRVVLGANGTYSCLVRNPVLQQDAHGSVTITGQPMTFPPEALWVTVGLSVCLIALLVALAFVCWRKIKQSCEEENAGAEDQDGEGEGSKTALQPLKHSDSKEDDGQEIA

T2: TPP-3760, B7H3 long, human (R&D Systems 2318-B3/CF) (human, UniProt Q5ZPR3 27-461)
T2 construct: Bought protein; also called B7H3 (RnDSystems, 2318-B3-050/CF); human B7H3
T2 sequence: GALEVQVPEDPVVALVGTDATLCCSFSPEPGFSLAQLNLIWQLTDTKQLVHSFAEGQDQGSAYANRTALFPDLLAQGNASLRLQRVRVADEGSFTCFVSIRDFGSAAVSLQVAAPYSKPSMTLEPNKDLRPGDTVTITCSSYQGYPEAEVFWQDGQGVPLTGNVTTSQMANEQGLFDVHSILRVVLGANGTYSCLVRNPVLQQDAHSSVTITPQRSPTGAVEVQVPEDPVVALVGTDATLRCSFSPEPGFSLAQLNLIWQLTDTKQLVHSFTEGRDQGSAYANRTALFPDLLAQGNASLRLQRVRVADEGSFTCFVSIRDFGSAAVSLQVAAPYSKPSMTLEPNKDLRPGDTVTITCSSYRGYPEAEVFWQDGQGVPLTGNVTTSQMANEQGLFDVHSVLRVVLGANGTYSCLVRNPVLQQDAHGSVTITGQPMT

T3: human B7H2 (RnDSystems, 8206-B7) (human, UniProt O75144 19-258, limits assumed)
T3 construct: Bought protein; His tag implied by anti-His detection
T3 sequence (looked up): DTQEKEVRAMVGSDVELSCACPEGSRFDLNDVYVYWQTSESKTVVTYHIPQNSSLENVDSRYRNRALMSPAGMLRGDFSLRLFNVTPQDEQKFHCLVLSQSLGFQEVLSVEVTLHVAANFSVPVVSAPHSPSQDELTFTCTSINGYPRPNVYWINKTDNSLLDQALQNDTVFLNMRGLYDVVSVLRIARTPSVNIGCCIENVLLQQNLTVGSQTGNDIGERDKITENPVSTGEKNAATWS

T4: human B7H4 (RnDSystems, 6576-B7) (human, UniProt Q7Z7D3 29-258, limits assumed)
T4 construct: Bought protein; His tag implied by anti-His detection
T4 sequence (looked up): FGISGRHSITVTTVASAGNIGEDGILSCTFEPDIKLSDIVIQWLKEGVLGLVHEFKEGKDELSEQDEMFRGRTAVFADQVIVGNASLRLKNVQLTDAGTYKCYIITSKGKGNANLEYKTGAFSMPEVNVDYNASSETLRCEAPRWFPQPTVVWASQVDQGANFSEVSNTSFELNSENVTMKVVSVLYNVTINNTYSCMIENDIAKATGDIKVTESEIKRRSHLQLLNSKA


Experiments:
[1] = target: T1, human B7H3 on cancer cell lines; experiment: cell-based or functional assay
[2] = target: T1, human B7H3 on cancer cell lines; experiment: cell-based or functional assay; remark: listed apart in the source
[3] = target: T2, TPP-3760, B7H3 long, human (R&D Systems …); experiment: ELISA, IgG captured on anti-human IgG Fc, antigen 37 ng/ml, anti-His HRP detection
Description: (§1) Binding of the antibodies to human B7H3 and to human B7H2 and B7H4 was characterized using ELISAs. […] After washing once with PSB, 0.05% Tween, the plate was blocked with 100% Smart Block (Candor) for one hour at 37° C. The antibody to be tested was then attached to the plate (2 μg/ml IgG in PBS, 0.05% Tween, 10% Smart Block; 1 hour, room temperature). […] After washing three times, the plate was incubated with Amplex Red for 30 minutes and then read.

[4] = target: T3, human B7H2 (RnDSystems, 8206-B7); experiment: as above
Description: as §1

[5] = target: T4, human B7H4 (RnDSystems, 6576-B7); experiment: as above
Description: as §1

[6] = target: T1, human B7H3 on cancer cell lines; experiment: flow cytometry on A498 cells, dose response from 10 ug/mL (1:5 dilution), FITC secondary antibody
Description: A dose response curve (1:5 dilution) was generated. Following incubation, 200 μL of ice-cold FACS buffer were pipetted in and the cell suspension was centrifuged at 4° C., 400 g for 4 min. The cell pellet was washed with 300 μL of ice-cold FACS buffer prior to resuspending the pellet obtained in 100 μL of FACS buffer and again incubating for 30 min on ice with secondary antibody (monoclonal anti-kappa light chains FITC antibody, Sigma, No. SAB4700605) in a 1:10 dilution. Subsequently, the cells were washed with ice-cold FACS buffer and adjusted to a cell concentration of 0.5×10⁶ cells/mL before carrying out the flow cytometry using a Guava flow cytometer (Millipore). Propidium iodide (final concentration 1 μg/mL) was used for the live staining. With the aid of the background-corrected geometric mean fluorescence values, the IC50 value of the antibody to be investigated was determined.

| Binder | A498 CTG (IC 50 M) [1] [nM] | MCF-7 CTG (IC50 M) [1] [nM] | U251 CTG (IC50 M) [2] [nM] | further results |
| --- | --- | --- | --- | --- |
| ADC Example 208-6501 (antibody, human IgG1, lambda, V domains shown, drug-linker from Intermediate F104 on Cys, sites not stated) VH: EVQLLESGGGLVQPGGSLRLSCAASGFTFSSYGMHWVRQAPGKGLEWVSAISGSGGSTYYADSVKGRFTISRDNSKNTLYLQMNSLRAEDTAVYYCARGSNYLGMDVWGQGTLVTVSS VL: QSVLTQPPSASGTPGQRVTISCSGSSSNIGRNIVNWYQQLPGTAPKLLIYRSNQRPSGVPDRFSGSKSGTSASLAISGLRSEDEADYYCQTWGTGWVFGGGTKLTVLG | < 0.03 | 0.161 | 0.295 | – |
| ADC Example 173-6515 (antibody, human IgG1, lambda, V domains shown, drug-linker from Intermediate F173 on Cys, sites not stated) VH: EVQLLESGGGLVQPGGSLRLSCAASGFTFSSYGMHWVRQVPGKGLEWVSAISGSGGTTYYADSVKGRFTISRDNSKNTLYLQMNSLRAEDTAVYYCARGGYHFLFDYWGQGTLVTVSS VL: QSVLTQPPSASGTPGQRVTISCSGSSSNIGSNTVNWYQQLPGTAPKLLIYRNDQRLLGVPDRFSGSKSGTSASLAISGLRSEDEADYYCQSYDSSLSGWVFGGGTKLTVLG | > 307 | – | – | Caki-2 CTG (IC50 M) [1]: 2.57 nM |
| ADC Example 284-6501 (antibody, human IgG1, lambda, V domains shown, drug-linker from Intermediate F284 on Cys, sites not stated) VH: EVQLLESGGGLVQPGGSLRLSCAASGFTFSSYGMHWVRQAPGKGLEWVSAISGSGGSTYYADSVKGRFTISRDNSKNTLYLQMNSLRAEDTAVYYCARGSNYLGMDVWGQGTLVTVSS VL: QSVLTQPPSASGTPGQRVTISCSGSSSNIGRNIVNWYQQLPGTAPKLLIYRSNQRPSGVPDRFSGSKSGTSASLAISGLRSEDEADYYCQTWGTGWVFGGGTKLTVLG | – | – | 62.9 | – |
| ADC Example 281-6501 (antibody, human IgG1, lambda, V domains shown, drug-linker from Intermediate F281 on Cys, sites not stated) VH: EVQLLESGGGLVQPGGSLRLSCAASGFTFSSYGMHWVRQAPGKGLEWVSAISGSGGSTYYADSVKGRFTISRDNSKNTLYLQMNSLRAEDTAVYYCARGSNYLGMDVWGQGTLVTVSS VL: QSVLTQPPSASGTPGQRVTISCSGSSSNIGRNIVNWYQQLPGTAPKLLIYRSNQRPSGVPDRFSGSKSGTSASLAISGLRSEDEADYYCQTWGTGWVFGGGTKLTVLG | – | – | 29.9 | – |
| ADC Example 297-6501 (antibody, human IgG1, lambda, V domains shown, drug-linker from Intermediate F297 on Cys, sites not stated) VH: EVQLLESGGGLVQPGGSLRLSCAASGFTFSSYGMHWVRQAPGKGLEWVSAISGSGGSTYYADSVKGRFTISRDNSKNTLYLQMNSLRAEDTAVYYCARGSNYLGMDVWGQGTLVTVSS VL: QSVLTQPPSASGTPGQRVTISCSGSSSNIGRNIVNWYQQLPGTAPKLLIYRSNQRPSGVPDRFSGSKSGTSASLAISGLRSEDEADYYCQTWGTGWVFGGGTKLTVLG | – | – | 0.704 | – |
| ADC Example 208-6515 (antibody, human IgG1, lambda, V domains shown, drug-linker from Intermediate F104 on Cys, sites not stated) VH: EVQLLESGGGLVQPGGSLRLSCAASGFTFSSYGMHWVRQVPGKGLEWVSAISGSGGTTYYADSVKGRFTISRDNSKNTLYLQMNSLRAEDTAVYYCARGGYHFLFDYWGQGTLVTVSS VL: QSVLTQPPSASGTPGQRVTISCSGSSSNIGSNTVNWYQQLPGTAPKLLIYRNDQRLLGVPDRFSGSKSGTSASLAISGLRSEDEADYYCQSYDSSLSGWVFGGGTKLTVLG | 0.688 | 0.338 | 0.41 | – |
| ADC Example 208-6499 (antibody, human IgG1, lambda, V domains shown, drug-linker from Intermediate F104 on Cys, sites not stated) VH: EVQLLESGGGLVQPGGSLRLSCAASGFTFRDFYMNWIRQAPGKGLEWVSSISASGKYTYYADSVKGRFTISRDNSKNTLYLQMNSLRAEDTAVYYCAREWGYCTNDVCRNWFDPWGQGTLVTVSS VL: QSVLTQPPSASGTPGQRVTISCSGGYSNVGGNNVNWYQQLPGTAPKLLIYGNSNRPSGVPDRFSGSKSGTSASLAISGLRSEDEADYYCQSYDSSLSGSVFGGGTKLTVLG | – | 0.135 | – | – |
| ADC Example 257-6499 (antibody, human IgG1, lambda, V domains shown, drug-linker from Intermediate F257 on Cys, sites not stated) VH: EVQLLESGGGLVQPGGSLRLSCAASGFTFRDFYMNWIRQAPGKGLEWVSSISASGKYTYYADSVKGRFTISRDNSKNTLYLQMNSLRAEDTAVYYCAREWGYCTNDVCRNWFDPWGQGTLVTVSS VL: QSVLTQPPSASGTPGQRVTISCSGGYSNVGGNNVNWYQQLPGTAPKLLIYGNSNRPSGVPDRFSGSKSGTSASLAISGLRSEDEADYYCQSYDSSLSGSVFGGGTKLTVLG | 0.247 | – | 0.0736 | Caki-2 CTG (IC50 M) [1]: < 0.03 nM |
| ADC Example 194-6502 (antibody, human IgG1, lambda, V domains shown, drug-linker from Intermediate F194 on Lys, sites not stated) VH: EVQLLESGGGLVQPGGSLRLSCAASGFTFSTYGMHWVRQAPGKGLEWVSAISGSGGSTYYADSVKGRFTISRDNSKNTLYLQMNSLRAEDTAVYYCTRGYYYYGMDVWGQGTLVTVSS VL: QSVLTQPPSASGTPGQRVTISCSGGSSNIGSNPVNWYQQLPGTAPKLLIYGNSKRPSGVPDRFSGSKSGTSASLAISGLRSEDEADYYCQSYDSSLSGWVFGGGTKLTVLG | 2.93 | 1 | – | – |
| ADC Example 208-6502 (antibody, human IgG1, lambda, V domains shown, drug-linker from Intermediate F104 on Cys, sites not stated) VH: EVQLLESGGGLVQPGGSLRLSCAASGFTFSTYGMHWVRQAPGKGLEWVSAISGSGGSTYYADSVKGRFTISRDNSKNTLYLQMNSLRAEDTAVYYCTRGYYYYGMDVWGQGTLVTVSS VL: QSVLTQPPSASGTPGQRVTISCSGGSSNIGSNPVNWYQQLPGTAPKLLIYGNSKRPSGVPDRFSGSKSGTSASLAISGLRSEDEADYYCQSYDSSLSGWVFGGGTKLTVLG | 0.0667 | – | 0.933 | – |
| ADC Example 274-6499 (antibody, human IgG1, lambda, V domains shown, drug-linker from Intermediate F274 on Cys, sites not stated) VH: EVQLLESGGGLVQPGGSLRLSCAASGFTFRDFYMNWIRQAPGKGLEWVSSISASGKYTYYADSVKGRFTISRDNSKNTLYLQMNSLRAEDTAVYYCAREWGYCTNDVCRNWFDPWGQGTLVTVSS VL: QSVLTQPPSASGTPGQRVTISCSGGYSNVGGNNVNWYQQLPGTAPKLLIYGNSNRPSGVPDRFSGSKSGTSASLAISGLRSEDEADYYCQSYDSSLSGSVFGGGTKLTVLG | – | – | 1.2 | – |
| TPP-6502 (antibody, human IgG1, lambda, V domains shown) VH: EVQLLESGGGLVQPGGSLRLSCAASGFTFSTYGMHWVRQAPGKGLEWVSAISGSGGSTYYADSVKGRFTISRDNSKNTLYLQMNSLRAEDTAVYYCTRGYYYYGMDVWGQGTLVTVSS VL: QSVLTQPPSASGTPGQRVTISCSGGSSNIGSNPVNWYQQLPGTAPKLLIYGNSKRPSGVPDRFSGSKSGTSASLAISGLRSEDEADYYCQSYDSSLSGWVFGGGTKLTVLG | – | – | – | Quotient signal (B7)/signal (buffer) [3]: 126; Quotient signal (B7)/signal (buffer) [4]: < 1.5; Quotient signal (B7)/signal (buffer) [5]: < 1.5; EC50 [6]: 0.143 nM |
